Data reported in publication PMC11398535 (bioRxiv, 2024).

Biological target: T1, peptide-8 (DEIVNKVL), derived from the ESCRT-III family member Vps2p
T1 peptide: {5(6)‑carboxyfluorescein}-DEIVNKVL-NH2
Assay: fluorescence polarisation

B1: Vps4p^L7C/A43C (MIT domain stabilised by a disulfide bond) (enzyme, S. cerevisiae, UniProt P52917 1-437, looked up)
chain: MSTGDFCTKGIELVQKAIDLDTATQYEEAYTAYYNGLDYLMLCLKYEKNPKSKDLIRAKFTEYLNRAEQLKKHLESEEANAAKKSPSAGSGSNGGNKKISQEEGEDNGGEDNKKLRGALSSAILSEKPNVKWEDVAGLEGAKEALKEAVILPVKFPHLFKGNRKPTSGILLYGPPGTGKSYLAKAVATEANSTFFSVSSSDLVSKWMGESEKLVKQLFAMARENKPSIIFIDEVDALTGTRGEGESEASRRIKTELLVQMNGVGNDSQGVLVLGATNIPWQLDSAIRRRFERRIYIPLPDLAARTTMFEINVGDTPCVLTKEDYRTLGAMTEGYSGSDIAVVVKDALMQPIRKIQSATHFKDVSTEDDETRKLTPCSPGDDGAIEMSWTDIEADELKEPDLTIKDFLKAIKSTRPTVNEDDLLKQEQFTRDFGQEGN
modifications: disulfide bond between C7 and C43 of the MIT domain
fold tighter than Vps4p: 8 fold
